Test results published in publication PMC11283359 (Molecular cell, 2024).

Target: T1, 3XFLAG-MED26 (knock-in) (mouse (endogenous in CH12), UniProt Q7TN02 1-588)
T1 sequence (looked up): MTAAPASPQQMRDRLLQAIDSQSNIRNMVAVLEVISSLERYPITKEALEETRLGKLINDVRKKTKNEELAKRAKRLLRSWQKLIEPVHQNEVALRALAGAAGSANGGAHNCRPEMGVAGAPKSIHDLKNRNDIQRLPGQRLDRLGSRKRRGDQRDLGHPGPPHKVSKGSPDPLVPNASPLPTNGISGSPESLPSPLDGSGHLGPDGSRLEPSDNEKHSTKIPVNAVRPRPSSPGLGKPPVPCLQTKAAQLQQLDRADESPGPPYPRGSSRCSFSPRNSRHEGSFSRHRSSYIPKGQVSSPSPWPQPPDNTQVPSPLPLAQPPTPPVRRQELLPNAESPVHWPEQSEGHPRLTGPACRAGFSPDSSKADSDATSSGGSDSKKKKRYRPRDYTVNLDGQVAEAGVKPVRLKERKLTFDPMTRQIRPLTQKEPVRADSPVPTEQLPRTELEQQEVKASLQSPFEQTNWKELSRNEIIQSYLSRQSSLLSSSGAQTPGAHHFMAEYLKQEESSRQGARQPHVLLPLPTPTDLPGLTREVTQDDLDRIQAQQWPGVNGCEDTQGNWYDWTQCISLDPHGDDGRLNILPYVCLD
Test: cryo-EM structure

B1: MED7 (natural protein, mouse (endogenous in CH12), UniProt Q9CZB6 1-233, looked up)
chain: MGEPQQVSALPPPPMQYIKEYTDENIQEGLAPKPPPPIKDSYMMFGNQFQCDDLIIRPLESQGIERLHPMQFDHKKELRKLNMSILINFLDLLDILIRSPGSIKREEKLEDLKLLFVHVHHLINEYRPHQARETLRVMMEVQKRQRLETAERFQKHLERVIEMIQNCLASLPDDLPHSEAGMRVKAEPMDTDDNSNCPGQNEQQRESSGHRRDQIIEKDAALCVLIDEMNERP
B1: binds.

B2: MED21 (natural protein, mouse (endogenous in CH12), UniProt Q9CQ39 1-144, looked up)
chain: MADRLTQLQDAVNSLADQFCNAIGVLQQCGPPASFSNIQTAINKDQPANPTEEYAQLFAALIARTAKDIDVLIDSLPSEESTAALQAASLYKLEEENHEAATCLEDVVYRGDMLLEKIQSALADIAQSQLKTRSVTHSHSLPDS
B2: binds.

B3: MED31 (endogenous) (natural protein, mouse (endogenous in CH12), UniProt Q9CXU1 1-131, looked up)
chain: MAAAVAMETDDAGNRLRFQLELEFVQCLANPNYLNFLAQRGYFKDKAFVNYLKYLLYWKEPEYAKYLKYPQCLHMLELLQYEHFRKELVNAQCAKFIDEQQILHWQHYSRKRVRLQQALAEQQQQNNTAGK
B3: binds.
